Experimental data as given in paper PMC4392246, “Structure of a BAG6 (Bcl-2-associated Athanogene 6)-Ubl4a (Ubiquitin-like Protein 4a) Complex Reveals a Novel Binding Interface That Functions in Tail-anchored Protein Biogenesis*” (The Journal of Biological Chemistry, 2015).

Key:
[1] = molecular target: T1, full-length Ubl4a (residues 1–157), recombinant (Homo sapiens, UniProt P11441 1-157); assay: SPR; BAGS domain (residues 1048-1123) immobilised on a CM5 chip by amine coupling; wild-type and mutant Ubl4a as analytes; 298 K; HBS-P (10 mM HEPES, 150 mM NaCl, 0.05% Surfactant P20, pH 7.2); 30 μl/min; two-state reaction model, overall dissociation constant; settings: both partners purified
T1 construct: Ubl4a, Homo sapiens, residues 1-157; also called Ubl4a(1–157); full-length Ubl4a wild type; source: recombinant
T1 sequence (looked up): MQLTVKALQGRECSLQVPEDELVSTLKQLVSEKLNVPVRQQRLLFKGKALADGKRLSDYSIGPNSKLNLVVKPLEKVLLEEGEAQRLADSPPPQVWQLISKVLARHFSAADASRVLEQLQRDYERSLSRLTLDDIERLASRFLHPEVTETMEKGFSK

[2] = molecular target: T2, full-length Ubl4a H106E mutant, recombinant (Homo sapiens, UniProt P11441 1-157, H106E); assay: as above; settings: both partners purified
T2 construct: Ubl4a, Homo sapiens, 157 amino acids, with H106E; also called H106E Ubl4a; source: recombinant
T2 sequence (looked up): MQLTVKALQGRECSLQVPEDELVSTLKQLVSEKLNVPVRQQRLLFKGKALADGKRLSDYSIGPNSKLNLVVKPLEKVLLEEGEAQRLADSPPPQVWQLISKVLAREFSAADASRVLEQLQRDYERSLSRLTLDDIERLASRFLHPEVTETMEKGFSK

- Kd [1]: 2.2 ± 0.5 nM
- Kd [2]: 1600 ± 80 nM
B1: BAG6 BAGS domain (residues 1048–1123) (domain or fragment, human, UniProt P46379-2 1048-1123, looked up)
chain: MQGEGPQLLLSEAVSRAAKAAGARPLTSPESLSRDLEAPEVQESYRQQLRSDIQKRLQEDPNYSPQRFPNAQRAFA
notes: BAG6, C-terminal BAGS domain, residues 1048-1123; printed length of BAG6 1,126 residues; Removal of GST is told for the crystallised complex; also called BAG6(1048–1123)
